Reference: IntAct's records for PubMed 25678599

B1: B-cell CLL/lymphoma 9-like protein (Mus musculus), Q67FY2 (parent)
chain: MRILANKTRLPHPRRREAPGSPPLSPRGHCPPAPAKPMHPENKLTNHGKTGNGGAQSQHQNVNQGPTCNLGSKGVGAGSHGAKANQISPSNSSLKNPQAGVSPFSSLKGKVKRERSVSVDSGEQREAGTPSLDSEAKEVAPRSKRRCVLERKQPYSGDEWCSGPDSEEDDKPIAAAHNCNVADPAMVTPQLGPGQTAQLPLSESSAPGPQHGPQPGLRPDVPGGGGGGVPGKPPSQFVYVFTTHLANTAAEAVLQGRAESILAYHQQNVPRAKLDQAPKVPPTPEPLPLNTPSAGTPQSQPPPLPPPPPAPGSAPPALPPEGPPEDTSQDLAPNSVGAASTGGGTGGTHPNTPTAATANNPLPPGGDPGSAPGSALLGEATPTGNGQRNLVGSEGLSKEQLEHRERSLQTLRDIERLLLRSGETEPFLKGPPGGAGEGGPPAQAPSAAQPPPSAPPGGLKKYEEPLQSMISQTQSLGGPPLEHEVPGHPQGGDMGQQMNMMMQRLGQDSLTPEQVAWRKLQEEYYEEKRRKEEQIGLHGGRPLQDMVGMGGMMGRGPPPPYHSKPGDQWPPGMGAQLRGPMDVQDPMQLRPGPPFPGPRFPGNQMQRVPGFGGMQSMPMEVPMNAMQRPVRPGMAWNEDLPPIGGPSNFAQNAVPYPGGQGEAERFMTPRVREELLRHQLLEKRSMGMQRPLGMAGSGMGQSMEMERMIQAHRQMDPAMFPGQMTGGDGLAGTPMGIEFGGGRGLLSPPMGQSGLREVDPPMGPGNLNMNMNVNMNMNMNLNVQMTPQQQMLMSQKMRGPGDMMGPQGLSPEEMARVRAQNSSGMMGGPQKMLMPSQFPNQGQQGFSGGQGPYQAMPQDMGNTPDMFSPDQSSVPMGTVGTARLSHMPLPPASNPPGSVHLASNRGLGRRPSDLTISINQMGSPGMGHLKSPTLSQVHSPLVTSPSANLKSPQTPSQMVPLPSANPPGPLKSPQVLSSSLGVRSPTGSPSRLKSPSMAVPSPGWVASPKTAMPSPGVSQNKQPPLSINSSSTLGNVEQGALPPSAPRNSSSAPPANPSSGLMNPSLPFTSSPDPTPSQNPLSLMMSQMSKYAMPSSTPLYHNAIKTIATSDDELLPDRPLLPPPPPPQGSGPGISNNQPNQMHMNPAAAQSPMGMNLPGQQPLSHEPPPTMLPSPTPLGSNIPLHPNAQGTGGSSQNSMMMAPGGPDSLNAPCGPVPSSSQMMSFPPRLQQPHGAMAPTGAGGPGLQQHYPSGMALPPEDLPTQPPGPIPPQQHLMGKGMTGRMGDAYPPGVLPGVASVLNDPELSEVIRPTPTGIPEFDLSRIIPSEKPSSTLQYFPKSENQPPKAQPPNLHLMNLQNMMAEQTPSRPPNLPGQQGVQRGLSMSMCHPGQMSLLGRTGVPPQQGMVPHGLHQGVMSPPQGLMTQQNFMLMKQRGVGGEVYTQPPHMLSPQGSLMGPPPQQNLMVSHPLRQRSVSLDSQMGYLPTPGSMANLPF
partner: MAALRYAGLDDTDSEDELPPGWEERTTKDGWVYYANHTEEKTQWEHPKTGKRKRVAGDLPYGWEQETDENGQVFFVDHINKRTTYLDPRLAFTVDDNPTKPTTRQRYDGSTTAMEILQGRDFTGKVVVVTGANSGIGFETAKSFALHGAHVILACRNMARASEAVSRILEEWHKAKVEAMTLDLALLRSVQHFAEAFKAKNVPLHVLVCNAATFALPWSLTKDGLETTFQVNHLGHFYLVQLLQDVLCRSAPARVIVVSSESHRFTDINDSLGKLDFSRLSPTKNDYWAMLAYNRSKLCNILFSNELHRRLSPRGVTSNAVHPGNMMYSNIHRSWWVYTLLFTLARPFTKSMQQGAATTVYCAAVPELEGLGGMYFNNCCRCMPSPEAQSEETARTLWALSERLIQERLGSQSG
B2: WW domain-containing oxidoreductase (Homo sapiens), Q9NZC7 (parent)
chain: B1 partner
partner: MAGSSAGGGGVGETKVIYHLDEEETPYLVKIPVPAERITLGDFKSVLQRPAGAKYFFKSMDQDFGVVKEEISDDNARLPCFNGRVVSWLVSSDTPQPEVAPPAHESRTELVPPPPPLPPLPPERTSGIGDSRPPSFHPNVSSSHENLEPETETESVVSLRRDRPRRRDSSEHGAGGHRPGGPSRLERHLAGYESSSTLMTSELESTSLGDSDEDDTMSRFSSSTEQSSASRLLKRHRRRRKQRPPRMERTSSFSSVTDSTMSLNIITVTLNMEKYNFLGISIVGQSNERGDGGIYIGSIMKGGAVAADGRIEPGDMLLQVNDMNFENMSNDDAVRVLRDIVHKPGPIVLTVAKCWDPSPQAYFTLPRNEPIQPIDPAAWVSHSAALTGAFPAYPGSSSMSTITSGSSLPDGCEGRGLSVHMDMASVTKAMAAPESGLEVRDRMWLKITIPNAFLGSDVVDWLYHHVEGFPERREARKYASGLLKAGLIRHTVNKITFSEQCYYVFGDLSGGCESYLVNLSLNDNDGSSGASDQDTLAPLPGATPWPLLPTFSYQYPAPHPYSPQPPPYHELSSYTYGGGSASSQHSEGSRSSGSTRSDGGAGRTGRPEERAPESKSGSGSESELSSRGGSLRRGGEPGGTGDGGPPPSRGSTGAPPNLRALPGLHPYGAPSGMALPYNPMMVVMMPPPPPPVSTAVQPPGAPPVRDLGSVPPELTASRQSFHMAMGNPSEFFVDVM
B3: WW domain-containing oxidoreductase (Homo sapiens), Q9NZC7 (parent)
chain: B1 partner
partner: B1 chain
B4: Segment polarity protein dishevelled homolog DVL-2 (Mus musculus), Q60838 (parent)
chain: B2 partner
partner: B1 partner

Variants of: B1
Conditions: with wwox_human WWOX, Q9NZC7

| Variant | effect of a mutation on the interaction |
| --- | --- |
| Y561A | disrupting interaction |

Variants of: B2
Conditions: with dvl2_mouse Dvl2, Q60838

| Variant | effect of a mutation on the interaction |
| --- | --- |
| Y33R | decreasing interaction |

Variants of: B3
Conditions: with bcl9l_mouse Bcl9l, Q67FY2

| Variant | effect of a mutation on the interaction |
| --- | --- |
| Y33R | decreasing interaction |

Variants of: B4
Conditions: with wwox_human WWOX, Q9NZC7

| Variant | effect of a mutation on the interaction |
| --- | --- |
| Y568A | decreasing interaction |
